Experimental data as given in the DeepSol protein solubility set.

test: soluble on expression in E. coli; label from the status in PepcDB or PDB records

Row | Sequence | soluble on expression in E. coli
1 | MLRVVEVCWRESHMKVLAINSSPRMDKGNTALILNPFLEGMKEAGAEVELFYTKKLKISPCTGEFNCWLKTPGKCYQNDDMNILYPRIDAADVIVFATPVYVDGVTGQMKNFIDRMLPRVEPFVELRDGHCRHPVRGGPKALKFVLVSNCGFWEMDNFDSLLVFMKAFCKNASTEFAGALLRPHGEALSSMLEMGAPIDDVFEAAREVGRQLVKEGKMSQETLDIVSRELLPKEMYIQIANQTFRQCLESLDRLEHHHHHH | not soluble
2 | MLSAESLKQIDIELAKYPADQRRSAIMGALRIAQTEKGWLAPETIAFVADYIGISPAQAYEVATFYNMYDLEPVGKYKLTVCTNLPCALRGGMATGEYLKQKLGISYGETTPDGKFTLVEGECMGACGDAPVMLLNNHKMCSFMTEEAIEKKLAELELEHHHHHH | soluble
3 | MLSAFTPRPLKRLFTANQCWTSFLDAGGLRDIEVEAVTKMLACGTRILGVKEYICDKPECPHVRYVTNSCGSRACPSCGKKATDLWIATQLNRLPDCDWVHLVFTLPDTQWPVFESNRWLLNDVCRLAVENLLYAARKRGQEPGIFCAIHTYGRRLNWHPHVHVSVTCGGLNKHGQWKKLSFLKDAMRSRWMWNMRQRLLKAWSEGLAMPESLSHITTESQRRSLVLKAGGKYWHVYMSKKTAGGRNTARYLGRYLKKPPIAASRLAHYNGGGA | not soluble
4 | MLSFLQSFFKSLGYEDYFKPIAPSSPRFFTKYCNETQKKITIVIDSNNIIRPFVFDESNEREPLFVAHLGCSECMRWNRMYGENIAENNEPETDSEDETDYESETSDSELGQDSPNPNLSEALNNCIENFDQLVDEVVRHKDFHERSQLLRVLEECLGNMNSFLQNENLTVDDISTGACALLNETAEKLKQMFSSSGISGRKESSEGTNKDLIKFGELEIRGDEEEDDDDESYVEGEEEDSSDEDLDDEDQEGESSIEPRLSETFKKSEARESLSSKEAPVKDLVIYQKFRDEHEDLEESENEPRMSDEAEKLVEDKIIEESDEDSFDIIGRDEELDDDSNGKEEEELELDVTQEDSEDDEQFFSL | not soluble
5 | MLSFTLRRAMSFTTRILKVRPESIQFVNDKPQISDNETLINLEIAAKELTTTHNAIGFPTETVYGLAGSALSDESVKSIYKAKNRPADNPLIVHISSIEQLKRKLINYEIPQVYLDLISHFWPGPLTILLPITKDSPISKLVTANQDTFAVRMPNHPVARALIAMSDTPIAAPSANASTRPSPTLAEHVYHDLNGKIPLILDGGACNVGVESTVIDGLVDPPMLLRPGGVSLEDIKRVGGKLWENIVVAKKTAGKLEPVKTPGMKYRHYSPTAKVVLFVNCGDGINAIENYLTNNKVDASTTKIALLKSKHFGEDHPHFIIKRLGTTGNEISHNLFKYLREVDEEDKVELIFVEGIDETNEGLAVMNRLSKAAMEVVNGGEA | soluble
6 | MLSIIGQKTLTIMYWTLELASKLEDAPWPATKDELIDYAQRSGAPLEVIENLQEMEDEGEIYESIEDIWPDYPSKEDFFFNEEEY | not soluble
7 | MLSIISKYLLIASYICSYLEPRYDASIFSRKTRIIQGRAAYGRRKKKEVNPRYLQPSLFAIERLLAIFQAIFPIQGKAESGSLSALREESLMKANIEVFQNLSELHTLKLIATTMNKNIDYLSPKVRWKVNVPWEIIKEISESVHFNISDYFSD | not soluble
8 | MLSIKGKKWRNWTGNVEGTPHYTMYPESIQDVVEVVGLARKKGKKIRVVGSGHSFTPLVQTEEVLVSLDELKGIVNIDAEKMVAEVWAGTKLYDLGKLLEEKGYAQENLGDIDSQSIAGAISTGTHGTGITFGSLSTQVIEITAVLSNGESIVCSETENVEYWRAFQLSLGMLGIIVKIKLKVIPAYSLVYESEKQSLSTVMNKLEEYKKHRHFEFFVFPYSDEVQVKLTNETTNTGSDLKWHKLKVELLENRMFSLLSKGCKWFPSISKGVSRLSAKAVPNTKIIGPSYEVFATSRTVPFYEMEYSIPSKYMRTVVEEISNLIEKKKYKVHFPIECRYVKGDDIWLSPAYGRDSAYIAVHMYKGMKYAAYFGEVEKIFLKYEGRPHWGKMHTLSYEQLQDIYPEFHSFLQARKSLDELGMFFNPYAEKLFIPLFAGQLEHHHHHH | soluble
9 | MLSKRIVTALNTAVKVQNAGIATTARGMAGASGSEVSKILEERILGTETGINLEETGKVLSIGDGIARVYGLKNIQAEEMVEFDSGIKGMAMNLDVDNVGVVVFGNDKVIREGDIVKRTGAIVDVPVGDGLLGRVVDALGNPIDGKGPIANARRSRVEVKAPGIIPRLSVREPMVTGVKAVDSLVPIGRGQRELIIGDRQTGKTAIAIDTIINQKRFNDAGDDKKKLFCIYVAVGQKRSTVAQIVKRLTDAGAMDYTIVVSATASDAAPLQFLAPYSGCAMGEHFRDNGKHALIIFDDLSKQAVAYRQMSLLLRRPPGREAYPGDVFYLHSRLLERAAKMNNSLGGGSLTALPVIETQAGDVSAYIPTNVISITDGQIFLETELFYKGVRPAINVGLSVSRVGSAAQTKAMKQVAGSMKLELAQYREVAAFAQFGSDLDASTQQLLNRGVRLTELLKQGQYVPMGIEEQVGVIYAGVKGYLDKVDPSAITKFEKEFLAHLRSSQQALLKTIREEGQISPQTDAQLKDVVVNFLATFKP | not soluble
10 | MLSLDSRKIIHHHHHHHHHDIKDGGATTGEWIGQTDHDDSDNHHQHHHHHPWCSDEVLALLRFRSTVENWFPEFTWEHTSRKLAEVGFKRSPQECKEKFEEEERRYFNSNNNNNNNTNDHQHIGNYNNKGNNYRIFSEVEEFYHHGHDNEHVSSEVGDNQNKRTNLVEGKGNVGETVQDLMAEDKLRDQDQGQVEEASMENQRNSIEVGKVGNVEDDAKSSSSSSLMMIMKEKKRKKRKKEKERFGVLKGFCEGLVRNMIAQQEEMHKKLLEDMVKKEEEKIAREEAWKKQEIERVNKEVEIRAQEQAMASDRNTNIIKFISKFTDHDLDVVQNPTSPSQDSSSLALRKTQGRRKFQTSSSLLPQTLTPHNLLTIDKSLEPFSTKTLKPKNQNPKPPKSDDKSDLGKRWPKDEVLALINIRRSISNMNDDDHKDENSLSTSSKAVPLWERISKKMLEIGYKRSAKRCKEKWENINKYFRKTKDVNKKRPLDSRTCPYFHQLTALYSQPPTGTTATTATTATSARDLDTRPEENRVGSQDPDISVPMHVDGDGAGDKSNVQFSGFDLEF | soluble
11 | MLSQKLFEEISAKISETIAASPAKDIEKNVRAMMASTFSKMDLVTREEFDVQQAVLARTREKLAALESRLARLESQAFPDEAAAKVEEQSELGHS | not soluble
12 | MLTDQEKIDLVNALDFVVIEPHTQSIYVHNDEKTNGVLAKVLHTISVDEYIESFKKGSLIDIFPAAMQEAGAEGFKDGQFVIMPKKFYVDQCYAMSKEIERLTNLNNLHNIKPNTYQGLIHLEHHHHHH | soluble
13 | MLTETEGRAAVKLARKTIEIFLSKGKSPRPDASGVELSPVFEEYRGVFVTLTEGGLLRGCIGHPYPDSTLKEAILDSAISAATRDPRFPTVEQDEMKNILVEVTILTQPEKINASPKELPDKVEIGKHGLIVKQGYCQGLLLPQVAPENDMDSIDFLSHTCMKAGLSPDAWVKGAEVYCFEGQIFKEKEPDGEVIEEKFLEHHHHHH | soluble
14 | MLTIGGKSFQSRLLLGTGKYPSFDIQKEAVAVSESDILTFAVRRMNIFEASQPNFLEQLDLSKYTLLPNTAGASTAEEAVRIARLAKASGLCDMIKVEVIGCSRSLLPDPVETLKASEQLLEEGFIVLPYTSDDVVLARKLEELGVHAIMPGASPIGSGQGILNPLNLSFIIEQAKVPVIVDAGIGSPKDAAYAMELGADGVLLNTAVSGADDPVKMARAMKLAVEAGRLSYEAGRIPLKQYGTASSPGEGLP | soluble
15 | MLTLSPPPAYLVTAANPAPSVAAAAPRALVFGGSGQIGERLLTRLLGRGWQVTAWSRAPRAARAGLIWRQGDLAAPAVAGESFEVIFSCGPLDHFAHWYETNAVSTPRIVAFGSTSVEVKEHSIDAAERDVAQRLANAEQALFSAAKARGAAATVLRPTLVYGAGRDRTLTQIAGLARRTGAFVLPANATGLRQPVHVDDLASAALAVVTQPATHQRSYAVGGGEVLAYTQMVERVLEALPRPARLYQVPPSLFGLALTTAQRLGRLRSLNTAALQRMRDDLVFDLEPARRDFGYAPRAFRPLPEELGIGELEHHHHHH | not soluble
16 | MLVAAILVGCGRDAPPPAAPVALDKTFLADTAAWREARLKELRAPDGWTSLVGLHWLSLKAHYIGSSADSGIKLAVGPPKMGMVSTENNAVWFVPERGAALTLDGKPLTSRIRFQSDRDPQPTLIHFDDGKGVLSLIHRGDRYALRVKHADASSRTHFAGLDYWPLDASWRINARYVPNAVGKTIPIVDIVGISSEQPNAGAIEFERDGKTFRLETIGEPGRAMFVVFADRTSGHGSYPAGRFLDLDVPDASGHVMVDFNRAYNPPCAFTPFATCPLPPPENRIDLAVSAGEKAYKVPHLEHHHHHH | soluble
17 | MLVLGDAHATTPGRRRALFAAYRAANESVAVQAGDLMYYDLPVQTYFIGGNNEDFDAIDALRNGRVESDDVANATLLNSTAATVDGRRVAGLTGNYAPTQFDKPRAVLRGDRRRHFVRSDVEAVMDLDDIDIFVAHEAPNGLPVEEDYDVGCQHIDDILDALQPSLCLVGHHHQHAECDYGDTHVVGLEPAWESYYVVDPDTLAVTRHDTPPALEHHHHHH | not soluble
18 | MLVLYLVFKKFLFKPVMKVINAREDMIKQQFDDAKKSQEEADALKASYDEKLESAKTEADEIIVNARNRAQEEHEAALEKTRKETEVMLEKAKADIATEKEKATEAAQADIARLALIAARKIVKTGDAHDAGSSK | not soluble
19 | MLVWEELREKALNKIYHDKEIGYLDPDILGFLLAFYRNRNDVYTQSSCSGRITIVDAEMPWDRKNSTIIFKNHLRITEQDLEDVLSKNQVRRLWLIVQGPIIHIYAKNIETGWDILKIAREAGFKHSGILATNQKGVLVELRTGIRMVHLLRESNTERVDKDKIKTLVNVCNEVLARGKQKMNLLKDLLSSSSNNSMELGKNSKLKTPI | soluble
20 | MLWHAMPPELNTARLMAGAGPAPMLAAAAGWQTLSAALDAQAVELTARLNSLGEAWTGGGSDKALAAATPMVVWLQTASTQAKTRAMQATAQAAAYTQAMATTPSLPEIAANHITQAVLTATNFFGINTIPIALTEMDYFIRMWNQAALAMEVYQAETAVNTLFEKLEPMASILDPGASQSTTNPIFGMPSPGSSTPVGQLPPAATQTLGQLGEMSGPMQQLTQPLQQVTSLFSQVGGTGGGNPADEEAAQMGLLGTSPLSNHPLAGGSGPSAGAGLLRAESLPGAGGSLTRTPLMSQLIEKPVAPSVMPAAAAGSSATGGAAPVGAGAMGQGAQSGGSTRPGLVAPAPLAQEREEDDEDDWDEEDDW | soluble
21 | MLYKIYSYLGWRIDMKTENLPQAGQEAQIDKKIHFIWVGHIMPQKNIQVVSEWAEKNPGYETIIWVDKKIAPAKELDLFILDMKSKGITVKDINEEGVCRDSIRHELDQESPNYGMVSDMLRLNILAAEGGIYLDSDILCSAPFPDEIYAPFGFLLSPWSQGANNTLCNDIILCSKGNQIIQQLADAIEQSYIARDSFEFTHEYASMKETKGERIAKTLGVTGPGFLFHQLKKMGILNDKSEMEAIHWELQDQRYLIDGSVKEPDYFYVPQNNTNDASWVPSIKRPGIENMSFQERLENAVQLIAFDIQKTGLFNLDHYANELKVKQNSWCIAAETSPELKPDSYLLIRPRDKTGEWTLYYVDEDKKLNPVTLPVIKGAIKLSEVSDPLRKFHTLLSQVSDPVNPTAHELKQIGRALIELKPRQDEWHCKNKWSGAEEIAQELWQRITSNETLRAQIKQCFTQFESLKPRVAELGLTRASGAGTEVEAHESTVKEQEIISQNTVGEEGTKEKNSVQLASENSSDEKIKTAHDLIDEIIQDVIQLDGKLGLLGGNTRQLEDGRVINIPNGAAMIFDDYKKYKQGELTAESALESMIKIAKLSNQLNRHTFFNQRQPETGQFYKKVAAIDLQTTIAAEYDNNHGLRILEHHHHHH | not soluble
